Among the data in article PMC6098134 are Kd values, retold here.

This test addresses recombinant basigin (CD147), immunoglobulin domains 1 and 2 of the short isoform (aa 22-205) (UniProt P35613). The test can be described thus: SPR; basigin immobilised on a CM5 chip by amine coupling (950 RU); RH5.1 injected as a two-fold dilution series from 2 µM, 120 s at 30 µL/min, 300 s dissociation; 20 °C; 10 mM HEPES pH 7.4, 150 mM NaCl, 3 mM EDTA, 0.005% Tween-20, 2 mg/mL dextran, 1 mg/mL salmon sperm DNA; kinetic sensorgrams fitted to a global 1:1 model. On the technique in general: SPR reads the build-up and loss of mass on a sensor chip optically.
Chain of UniProt P35613 (P35613 other isoform, or with tags, fused parts or gaps): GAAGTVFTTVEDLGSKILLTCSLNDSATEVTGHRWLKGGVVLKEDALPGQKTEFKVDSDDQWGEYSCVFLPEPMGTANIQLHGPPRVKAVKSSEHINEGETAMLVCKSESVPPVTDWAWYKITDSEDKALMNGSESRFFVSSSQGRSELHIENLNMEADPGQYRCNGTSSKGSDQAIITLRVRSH

By Kd is commonly meant the free concentration of one partner at which half of the binding sites on the other are occupied at equilibrium, for simple one-to-one binding. “RH5.1 protein vaccine (full-length Plasmodium falciparum reticulocyte-binding protein homolog 5, PfRH5, aa E26-Q526, with C-tag) (from UniProt Q8IFM5 26-526) (natural protein)”: the Kd amounted to 1200 nM.
